Results published in patent US20130251724A1 (GlaxoSmithKline, published 2013).
“And” between values parts separate entries of the source, which are not always exact repeats. Equal values may be shown once. Read-outs that look alike come from different tables or passages of the source. Blank lines part the entries; values can stand above or below the binder they belong to.

How the values were obtained:
Human OSM [1] = molecular target: T1, Human OSM (human, UniProt P13725 26-221); assay: cell-based or functional assay
T1 sequence: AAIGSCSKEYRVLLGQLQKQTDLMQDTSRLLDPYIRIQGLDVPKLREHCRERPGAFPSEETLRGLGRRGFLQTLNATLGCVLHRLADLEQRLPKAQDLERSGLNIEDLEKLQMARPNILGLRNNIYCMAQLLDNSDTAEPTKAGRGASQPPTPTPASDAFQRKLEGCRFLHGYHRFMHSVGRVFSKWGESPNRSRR

Cynomolgus OSM [2] = molecular target: T2, Cynomolgus OSM (cynomolgus, UniProt A0A2K5VPC6 26-221); assay: cell-based or functional assay
T2 sequence: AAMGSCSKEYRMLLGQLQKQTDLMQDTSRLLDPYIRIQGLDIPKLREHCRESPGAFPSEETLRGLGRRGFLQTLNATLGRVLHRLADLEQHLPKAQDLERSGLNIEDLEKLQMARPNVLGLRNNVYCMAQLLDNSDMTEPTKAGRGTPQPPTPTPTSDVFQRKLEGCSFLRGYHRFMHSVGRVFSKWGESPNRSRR

Human OSM [3] = molecular target: T1, Human OSM; assay: Kinexa solution phase affinity
Procedure: (§1) Kinexa (Sapidyne Instruments 3200) solution phase affinity was used to determine the overall affinity of anti-OSM antibody H0(huCDRH1)L1 and Humanised 15E10 (an unrelated OSM antibody) to human, cynomolgus macaque, rhesus macaque and marmoset OSM (Table 15). Humanised 15E10 was added for comparison purposes.
(§2) OSM beads were prepared either by adsorption (polymethylmethacrylate beads-PMMA) or amine coupling (NHS-activated sepharose beads). The range of OSM molecules studied necessitated the generation of beads coated with different concentrations of OSM. For the solution phase portion of the assay, a fixed concentration of antibody was incubated with a broad range of OSM concentrations and allowed to reach equilibrium by incubation at r.t. for at least 2 h before analysis proceeded. The OSM beads were then used to determine the amount of free antibody present in the solution phase samples, by means of the free antibody binding to the OSM bead matrix then detected using an appropriate secondary antibody (either anti-human or anti-mouse depending on the construct being tested) labelled with a fluorescent dye. The binding curves where fitted using the Kinexa Pro analysis software inherent to the machine. Multiple runs using varying starting concentrations of antibody were then compiled and analysed using the n-curve analysis software to give a more accurate determination of affinity.

Cynomolgus OSM [4] = molecular target: T2, Cynomolgus OSM; assay: Kinexa solution phase affinity
Procedure: as §1, §2

Marmoset OSM [5] = molecular target: T3, Marmoset OSM (marmoset); assay: Kinexa solution phase affinity
T3 construct: also called Marm OSM
Procedure: as §1, §2

Rhesus OSM = molecular target: T4, Rhesus OSM (rhesus macaque, UniProt F7GF43 26-221); assay: Kinexa solution phase affinity
T4 construct: also called rhesus macaque OSM
T4 sequence: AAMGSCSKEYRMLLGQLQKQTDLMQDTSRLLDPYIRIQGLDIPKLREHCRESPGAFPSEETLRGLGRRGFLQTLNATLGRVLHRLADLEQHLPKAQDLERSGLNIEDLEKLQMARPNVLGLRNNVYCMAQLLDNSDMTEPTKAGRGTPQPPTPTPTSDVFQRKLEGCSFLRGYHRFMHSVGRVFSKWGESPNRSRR
Procedure: as §1, §2

Human OSM [6] = molecular target: T1, Human OSM; assay: cell-based or functional assay; remark: listed apart in the source
Human OSM [7] = molecular target: T1, Human OSM; assay: cell-based or functional assay; remark: listed apart in the source
Human OSM [8] = molecular target: T1, Human OSM; assay: cell-based or functional assay; remark: listed apart in the source
Human OSM [9] = molecular target: T1, Human OSM; assay: cell-based or functional assay; remark: listed apart in the source
Human OSM [10] = molecular target: T1, Human OSM; assay: cell-based or functional assay; remark: listed apart in the source
Human OSM [11] = molecular target: T1, Human OSM; assay: cell-based or functional assay; remark: listed apart in the source
Human OSM [12] = molecular target: T1, Human OSM; assay: cell-based or functional assay; remark: listed apart in the source
Human OSM [13] = molecular target: T1, Human OSM; assay: cell-based or functional assay; remark: listed apart in the source
Human OSM [14] = molecular target: T1, Human OSM; assay: BIAcore kinetics, purified antibody
Cynomolgus OSM [15] = molecular target: T2, Cynomolgus OSM; assay: BIAcore kinetics, purified antibody
Human OSM [16] = molecular target: T1, Human OSM; assay: BIAcore kinetics, purified antibody; remark: listed apart in the source
Cynomolgus OSM [17] = molecular target: T2, Cynomolgus OSM; assay: BIAcore kinetics, purified antibody; remark: listed apart in the source
[18] = molecular target: T5, Endogenous human OSM (neutrophil-derived) (human, UniProt P13725 26-221, limits assumed); assay: gp130 ELISA with endogenous neutrophil-derived human OSM
T5 construct: Native OSM generated from GM-CSF stimulation of healthy human neutrophils; also called native OSM; endogenous OSM
T5 sequence: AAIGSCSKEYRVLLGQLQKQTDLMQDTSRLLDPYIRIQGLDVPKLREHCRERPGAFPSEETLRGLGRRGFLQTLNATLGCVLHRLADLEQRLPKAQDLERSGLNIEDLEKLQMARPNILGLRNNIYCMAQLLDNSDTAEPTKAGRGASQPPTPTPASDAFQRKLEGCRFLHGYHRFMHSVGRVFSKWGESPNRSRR

Human OSM [19] = molecular target: T1, Human OSM; assay: BIAcore kinetics
Cynomolgus OSM [20] = molecular target: T2, Cynomolgus OSM; assay: BIAcore kinetics
Human OSM [21] = molecular target: T1, Human OSM; assay: cell-based or functional assay; remark: listed apart in the source
Cynomolgus OSM [22] = molecular target: T2, Cynomolgus OSM; assay: cell-based or functional assay; remark: listed apart in the source
Marmoset OSM [23] = molecular target: T3, Marmoset OSM; assay: cell-based or functional assay
Human OSM [24] = molecular target: T1, Human OSM; assay: human gp130 ELISA, inhibition of OSM binding to gp130
Cynomolgus OSM [25] = molecular target: T2, Cynomolgus OSM; assay: as above
Human OSM [26] = molecular target: T1, Human OSM; assay: BIAcore kinetics; remark: listed apart in the source
Cynomolgus OSM [27] = molecular target: T2, Cynomolgus OSM; assay: BIAcore kinetics; remark: listed apart in the source
Human OSM [28] = molecular target: T1, Human OSM; assay: BIAcore kinetics; remark: listed apart in the source
Cynomolgus OSM [29] = molecular target: T2, Cynomolgus OSM; assay: BIAcore kinetics; remark: listed apart in the source
Human OSM [30] = molecular target: T1, Human OSM; assay: cell-based or functional assay; remark: listed apart in the source
Human OSM [31] = molecular target: T1, Human OSM; assay: cell-based or functional assay; remark: listed apart in the source
Cynomolgus OSM [32] = molecular target: T2, Cynomolgus OSM; assay: cell-based or functional assay; remark: listed apart in the source
Marmoset OSM [33] = molecular target: T3, Marmoset OSM; assay: cell-based or functional assay; remark: listed apart in the source
Human OSM [34] = molecular target: T1, Human OSM; assay: cell-based or functional assay; remark: listed apart in the source
Human OSM [35] = molecular target: T1, Human OSM; assay: human gp130 ELISA, inhibition of OSM binding to gp130; remark: listed apart in the source
Cynomolgus OSM [36] = molecular target: T2, Cynomolgus OSM; assay: as above; remark: listed apart in the source
[37] = molecular target: T5, Endogenous human OSM …; assay: gp130 ELISA with endogenous neutrophil-derived human OSM; remark: listed apart in the source

- KB cell neutralisation assay, mean IC50 (Human OSM [1]): 0.0391 µg/ml and 261 pM
- KB cell neutralisation assay, mean IC50 (Cynomolgus OSM [2]): 0.0054 µg/ml and 36 pM
- Kd (Human OSM [3]): 727 pM
- Kd (Cynomolgus OSM [4]): 102 pM
- Kd (Marmoset OSM [5]): 6100 pM
- Kd (Rhesus OSM): 102 pM
- IC50 (read off the curve); IL-6 release from HFLS-RA cells stimulated with 0.3 ng/ml human OSM (Human OSM [6]): ~100 pM
- IC50 (read off the curve); IL-6 release from HFLS-RA cells stimulated with 3 ng/ml human OSM (Human OSM [7]): ~2000 pM
- IC50 (read off the curve); MCP-1 release from HFLS-RA cells stimulated with 0.3 ng/ml human OSM (Human OSM [8]): ~200 pM
- IC50 (read off the curve); MCP-1 release from HFLS-RA cells stimulated with 3 ng/ml human OSM (Human OSM [9]): ~2000 pM
- IC50 (read off the curve); MCP-1 release from normal human lung fibroblasts stimulated with 3 ng/ml OSM (Human OSM [10]): ~1 µg/mL
- IC50 (read off the curve); MCP-1 release from IPF human lung fibroblasts stimulated with 3 ng/ml OSM (Human OSM [11]): ~2 µg/mL
- IC50 (read off the curve); IL-6 release from normal human lung fibroblasts stimulated with 3 ng/ml OSM (Human OSM [12]): ~0.6 µg/mL
- IC50 (read off the curve); IL-6 release from IPF human lung fibroblasts stimulated with 3 ng/ml OSM (Human OSM [13]): ~1 µg/mL
- Kd (Human OSM [14]): 1430 pM
- koff (Human OSM [14]): 0.000615 s⁻¹
- kon (Human OSM [14]): 429000 M⁻¹ s⁻¹
- Kd (Cynomolgus OSM [15]): 590 pM
- koff (Cynomolgus OSM [15]): 0.00031 s⁻¹
- kon (Cynomolgus OSM [15]): 526000 M⁻¹ s⁻¹
- Kd (Human OSM [16]): 882 pM
- koff (Human OSM [16]): 0.000649 s⁻¹
- kon (Human OSM [16]): 736000 M⁻¹ s⁻¹
- Kd (Cynomolgus OSM [17]): 640 pM
- koff (Cynomolgus OSM [17]): 0.000324 s⁻¹
- kon (Cynomolgus OSM [17]): 507000 M⁻¹ s⁻¹
- IC50 [18]: 0.076 µg/mL and 0.507 nM
B1: 15E10h, non-competitive anti-OSM humanised antibody (antibody, human IgG1, kappa, V domains shown)
VH: QVQLVESGGGVVQPGRSLRLSCAASGFSLTNYGVHWVRQAPGKGLEWVAVIWRGGSTDYNAAFMSRFTISKDNSKNTLYLQMNSLRAEDTAVYYCAKSPNSNFYWYFDVWGRGTLVTVSS
VL: EIVLTQSPATLSLSPGERATLSCSGSSSVSYMYWYQQKPGQAPRLLIEDTSNLASGIPARFSGSGSGTDYTLTISNLEPEDFAVYYCQQWSSYPPTFGQGTKLEIKR
notes: also called Humanised 15E10; humanised 15E10

- Kd (Human OSM [19]): 2090 pM
- Kd (Cynomolgus OSM [20]): 9310 pM
- KB cell neutralisation assay, mean IC50 (Human OSM [21]): 0.049 µg/ml and 327 pM
- KB cell neutralisation assay, mean IC50 (Cynomolgus OSM [22]): 0.344 µg/ml and 2.3 nM
- IC50 (read off the curve); IL-6 release from KB cells stimulated with marmoset OSM (Marmoset OSM [23]): ~0.05 µg/mL
- IC50 (Human OSM [24]): 0.08 µg/mL and 0.533 nM
- IC50 (Cynomolgus OSM [25]): 0.14 µg/mL and 0.993 nM
B2: 2B7, murine anti-OSM mAb (antibody, V domains shown)
VH: EVQLVESGGGLVKPGGSLKLSCAASGFTFSNYAMSWVRQTPEKRLEWVATISDGGGYTYYLDNGQGRFTISRDNAKNNLYLQMSHLKSEDTAMYYCARDVGLTTFWYFDVWGTGTTVTVSS
VL: DIVLTQSPVSLVISLGQRATISCRASKSVSPSSYNFMHWYQQRPGQPPKLLITYASNLESGVPARFSGSGSGTDFTLNIHPVEEEDAATYYCQHSREFPFTFGGGTRLEIK
notes: Mouse hybridoma mAb; also called 2B7/A6; 2B7.A6

- fold increased affinity compared with 15E10 (Human OSM [26]): 8 fold
- fold increased affinity compared with 15E10 (Cynomolgus OSM [27]): 11 fold
- Kd (Human OSM [19]): 550 pM
- Kd (Cynomolgus OSM [20]): 308 pM
- Kd (Human OSM [28]): 549 pM
- koff (Human OSM [28]): 6.14e-05 s⁻¹
- kon (Human OSM [28]): 112000 M⁻¹ s⁻¹
- Kd (Cynomolgus OSM [29]): 308 pM
- koff (Cynomolgus OSM [29]): 2.99e-05 s⁻¹
- kon (Cynomolgus OSM [29]): 96900 M⁻¹ s⁻¹
- KB cell neutralisation assay, potency compared with 15E10 (Human OSM [30]): 15 fold
- KB cell neutralisation assay, mean IC50 (Human OSM [21]): 0.008 µg/ml and 53 pM
- KB cell neutralisation assay, mean IC50 (Cynomolgus OSM [22]): 0.006 µg/ml and 40 pM
- KB cell neutralisation assay, mean IC50 (Human OSM [31]): 0.054 µg/ml and 360 pM
- KB cell neutralisation assay, mean IC50 (Cynomolgus OSM [32]): 0.034 µg/ml and 227 pM
- KB cell neutralisation assay, mean IC50 (Human OSM [1]): 0.0026 µg/ml and 17 pM
- KB cell neutralisation assay, mean IC50 (Cynomolgus OSM [2]): 0.0017 µg/ml and 11 pM
- KB cell neutralisation assay, mean IC50 (Marmoset OSM [33]): 0.0017 µg/ml and 11 pM
- IC50 (read off the curve); IL-6 release from KB cells stimulated with human OSM, 25% human AB serum (Human OSM [34]): ~0.02 µg/mL
- IC50 (Human OSM [24]): 0.06 µg/mL and 0.4 nM
- IC50 (Cynomolgus OSM [25]): 0.01 µg/mL and 0.04 nM
- IC50 (Human OSM [35]): 0.044 µg/mL and 0.293 nM
- IC50 (Cynomolgus OSM [36]): 0.017 µg/mL and 0.113 nM
- IC50 [37]: 0.009 µg/mL and 0.06 nM
- IC50 [18]: 0.009 µg/mL and 0.06 nM
B3: anti human OSM mAb S168110G08(1)1A09 (10G8), murine (antibody, V domains shown)
VH: EMQLVESGEGLVEPGGSLKLSCAASGFTFSNYAMSWVRQTPEKSLEWVATISDGGSFTYYLDNVRGRFTISRDNAKNNLYLQMSHLKSDDTAMYYCARDVGHTTFWYFDVWGSGTAVTVSS
VL: DIVLTQSPVFLVVSLGQRATISCRASKSVSAAGYNFMHWYQQKPGQPPKVLIKYASNLESGVPARFSGSGSGTDFTLNIHPVEEEDAVTYYCLHSREFPFTFGGGTNLEIK
notes: Mouse hybridoma mAb; also called 10G8/A9; 10G8.A9
